Read-outs that look alike come from different tables or passages of the source. Each block holds one binder with its values, some of them ahead of it.
Key:
[1] = biological target: T1, mouse TMPRSS6 expressed on HEK293T cells, MoTMPRSS6-(His)6 (mouse, UniProt Q9DBI0 1-811); assay: cell surface ELISA on methanol-fixed HEK293T cells expressing mouse TMPRSS6
T1 construct: HEK293T cells stably expressing the construct; also called murine TMPRSS6
T1 sequence: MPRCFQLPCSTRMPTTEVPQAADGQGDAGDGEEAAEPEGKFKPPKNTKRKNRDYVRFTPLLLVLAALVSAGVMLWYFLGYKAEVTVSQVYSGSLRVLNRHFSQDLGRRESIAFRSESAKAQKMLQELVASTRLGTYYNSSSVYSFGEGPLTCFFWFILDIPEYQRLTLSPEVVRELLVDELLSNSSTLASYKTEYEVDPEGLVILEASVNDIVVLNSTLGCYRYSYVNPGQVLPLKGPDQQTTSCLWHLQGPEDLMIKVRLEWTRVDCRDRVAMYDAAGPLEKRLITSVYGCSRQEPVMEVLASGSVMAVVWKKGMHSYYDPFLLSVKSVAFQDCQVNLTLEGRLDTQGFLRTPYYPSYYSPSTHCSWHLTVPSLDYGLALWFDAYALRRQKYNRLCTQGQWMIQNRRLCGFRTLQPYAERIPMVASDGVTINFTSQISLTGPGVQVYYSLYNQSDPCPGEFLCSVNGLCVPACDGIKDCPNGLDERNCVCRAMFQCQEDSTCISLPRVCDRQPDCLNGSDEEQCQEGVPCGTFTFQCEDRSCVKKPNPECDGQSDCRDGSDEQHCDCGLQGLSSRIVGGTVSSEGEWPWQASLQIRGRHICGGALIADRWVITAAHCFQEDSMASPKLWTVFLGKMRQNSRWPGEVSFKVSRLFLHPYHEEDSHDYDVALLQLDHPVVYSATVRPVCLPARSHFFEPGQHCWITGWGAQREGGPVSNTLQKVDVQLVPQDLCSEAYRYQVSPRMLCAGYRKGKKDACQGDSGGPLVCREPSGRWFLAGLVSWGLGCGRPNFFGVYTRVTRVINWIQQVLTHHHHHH
Experimental: (§1) HEK293T cells stably expressing mouse TMPRSS6 (generated by LakePharma Inc as described above, FIGS. 4J, 4L, 4N, 4P, 4R, 4T) or cynomolgus monkey (generated in house as described above, FIGS. 4K, 4M, 4O, 4Q, 4S, 4U) were fixed with methanol (100%), and washed with dPBS (Dulbecco's phosphate-buffered saline, Corning Cellgro) before incubation with various concentrations of anti-TMPRSS6 antibodies and their humanized variants diluted in BSA medium (DMEM+1% Pen/Strep+10 mM HEPES+1 mg/ml BSA (Sigma-Aldrich)). Purified mouse IgG (FIGS. 4J-4O) or Human IgG1 (FIGS. 4P-4U) was used as a control. After incubation, cells were washed with BSA medium and then incubated with goat anti-mouse (Invitrogen, FIGS. 4J-4O) or anti-human (Millipore, FIGS. 4P-4U) IgG conjugated with HRP as a 2° antibody. Finally, cells were washed with dPBS to remove unbound antibody and color developed with ELISA liquid substrate (Sigma-Aldrich), followed by stopping the reaction with addition of the same volume of […] 1M H₂SO₄. Bound antibody was measured by absorbance at OD₄₅₀ₙₘ.

[2] = biological target: T1, mouse TMPRSS6 expressed on HEK293T …; assay: summary of Example 4 (cell surface ELISA)
Experimental: as §1

[3] = biological target: T2, mouse TMPRSS6 expressed on HEK293T cells, MoTMPRSS6-(His)6 (UniProt Q9DBI0 1-811); assay: cell surface ELISA
T2 chain: T1 sequence

[4] = biological target: T1, mouse TMPRSS6 expressed on HEK293T …; assay: summary of Example 4 (FACS, cell surface ELISA)
Experimental: (§2) Selected anti-TMPRSS6 antibodies were tested to determine whether any are capable of binding to TMPRSS6 from mouse and/or cynomolgus monkey. HEK293T cells stably expressing human TMPRSS6 (HuTMPRSS6-(His)₆) (generated by LakePharma Inc as described above), HEK293T cells stably expressing mouse TMPRSS6 (MoTMPRSS6-(His)₆) (SEQ ID NO: 98) (generated by LakePharma Inc as described above) and HEK293T cells transiently expressing cynomolgus monkey TMPRSS6 (CynoTMPRSS6-(His)₆) (SEQ ID NO: 99) (generated in house) were collected. HEK293T cells stably expressing human TMPRSS6 were used as a positive control and HEK293T cells were used as a negative control (as described above). Cells were blocked with dPBS+3% BSA before incubation with anti-TMPRSS6 antibodies diluted in dPBS+3% BSA. After incubation, cells were washed with dPBS and followed by another incubation with goat anti-mouse IgG conjugated with AlexaFluor-488 as a 2° antibody (Invitrogen). At last, cells were washed with dPBS to remove unbound antibody, re-suspended with dPBS+1 mM EDTA, and then subjected to FACS analysis using a NOVOCYTE® Flow Cytometer (ACEA Biosciences, Inc., San Diego CA). Bound antibody was determined by excitation at 488 nm and measurement of emission (FITC-A) at 530 nm. Results for these assays are shown in histogram plots in FIGS. 4A-4I.
HEK293T cells stably expressing mouse TMPRSS6 (generated by LakePharma Inc as described above, FIGS. 4J, 4L, 4N, 4P, 4R, 4T) or cynomolgus monkey (generated in house as described above, FIGS. 4K, 4M, 4O, 4Q, 4S, 4U) were fixed with methanol (100%), and washed with dPBS (Dulbecco's phosphate-buffered saline, Corning Cellgro) before incubation with various concentrations of anti-TMPRSS6 antibodies and their humanized variants diluted in BSA medium (DMEM+1% Pen/Strep+10 mM HEPES+1 mg/ml BSA (Sigma-Aldrich)). Purified mouse IgG (FIGS. 4J-4O) or Human IgG1 (FIGS. 4P-4U) was used as a control.

[5] = biological target: T2, mouse TMPRSS6 expressed on HEK293T …; assay: cell surface ELISA
[6] = biological target: T1, mouse TMPRSS6 expressed on HEK293T …; assay: FACS on HEK293T cells stably expressing MoTMPRSS6-(His)6
Experimental: as §2

B1: humanized anti-TMPRSS6 antibody variant hzMWTx-002 Var (antibody, human IgG1, kappa, N297A, V domains shown)
VH: EVQLVQSGAEVKKPGASVKVSCKASGFNIKDYYIHWVRQATGQGLEWMGRIDPEDAESEYAPKFQGRVTITADTSTDTAYMELSSLRSEDTAVYYCTRGDSMMVTYFDYWGQGTLVTVSS
VL: DIQMTQSPSSLSASVGDRVTITCKASQDVSTAVAWYQQKPGKAPKLLIYWAFTRHTGVPSRFSGSGSGTDYALTISSLQPEDFATYYCQQHYRSPWTFGGGTKVEIKR
notes: Human IgG1 / kappa
- binding result [1]: no binding

B2: humanized anti-TMPRSS6 antibody variant hzMWTx-001 Var (antibody, human IgG1, kappa, N297A, V domains shown)
VH: EVQLVQSGAEVKKPGASVKVSCKASGYTFTSYWITWVRQAPGQRLEWIGNIYPGSGSTYYNEKFKSKATITRDTSSRTAYMELSSLRSEDTAVYYCAPYDADYAMDYWGQGTLVTVSS
VL: DIQMTQSPSSLSASVGDRVTITCKASQDISNYLSWFQQKPGKAPKLLIYRANRLVEGVPSRFSGSGSGTDFTLTISSLQPEDFATYFCLQYDEFPLTFGGGTKVEIKR
notes: Human IgG1 / kappa
- binding result [2]: binds
- EC50 [3]: 0.03 µg/mL

B6: MWTx-003 anti-TMPRSS6 monoclonal antibody (antibody, mouse IgG2b, kappa, V domains shown)
VH: EVQLQQSGAELVKPGASVKLSCTASGFNIEDYYIHWVKERTEQGLEWIGRIDPEDGETTYAPQFQGKATIIPDTSSNTAYMQLSSLTSEDAAVYYCARSIYLDPMDYWGQGTSVTVSS
VL: DIVMTQSHKFMSTSVGDRVSITCKASQDVTTAVAWYQQKPGQSPKILIYWATTRHTGVPDRFTGSISGTTYILTISSVQAEDLALYYCQQHYSTPYTFGGGTKLEIKR
notes: Mouse monoclonal antibody from hybridoma (ATCC PTA-126761); The recombinant version r4K12B has the same HC and LC; also called r4K12B; recombinant MWTx-003
- binding result [4]: binds
- EC50 [5]: 0.07 µg/mL

The next lines start with the values.

- binding result [2]: binds
- EC50 [3]: 0.31 µg/mL
B3: humanized anti-TMPRSS6 antibody variant hzMWTx-003 Var (antibody, human IgG1, kappa, L234A L235A, V domains shown)
VH: QVQLVQSGAEVKKPGASVKVSCKASGFNIEDYYMHWVRQAPGQRLEWMGRIDPEDAETTYSPKFQGRVTIIPDTSANTAYMELSSLRSEDTAVYYCARSIYLDPMDYWGQGTLVTVSS
VL: DIQMTQSPKSLSASVGDRVTITCRASQDVTTALAWYQQKPGQSPKLLIYWATTRHSGVPSRFSGSGSGTDFTLTISSLQPEDFATYYCQQHYSTPYTFGQGTKLEIKR
notes: Human IgG1 / kappa

- binding result [4]: binds
- EC50 [5]: 0.25 µg/mL
B4: MWTx-001 anti-TMPRSS6 monoclonal antibody (antibody, mouse IgG2a, kappa, V domains shown)
VH: QVQLQQPGAELAKPGASVKMSCKASGYTFTSYWITWVKQRPGQDLEWIGNIYPGSGSTYYNEKFKSKATLTVDTSSRTAYMQLSSLTSADSAVYYCAPYDSDYAMDYWGQGTSVTVSS
VL: DIKMTQSPSSMYASLGERVTITCKASQDINNYLSWFQQKPGKSPKTLIYRANRLVDGVPSRVSGSGSGQDYSLTISSLEYEDVGIYFCLQYDEFPLTFGAGTKLELKR
notes: Mouse monoclonal antibody from hybridoma (ATCC PTA-126759)

- binding result [6]: no binding
B5: MWTx-002 anti-TMPRSS6 monoclonal antibody (antibody, mouse IgG2b, kappa, V domains shown)
VH: EVQLQQSGAELVKPGASVKLSCTASGFNIKDYYIHWVKERTEQGLEWFGRIDPEDGESEYAPKFQGKATLTADTSSNTAYLQLSSLTSEDTAVYYCTRGDSMMVTYFDYWGQGTTLTVSS
VL: DIVMTQSHKFMSTSVGDRVSITCKASQDVSTAVAWYQQKPGQSPKLLIYWAFTRHTGVPDRFTSTGSGTDYALTISSVQAEDLALYYCQQHYRSPWTFGGGTKLEIKR
notes: Mouse monoclonal antibody from hybridoma (ATCC PTA-126760)
